In assay [1] the target is GLP-2R R344^5.40A (human) (UniProt O95838). Nature of the assay: radioligand binding; competition on transiently transfected COS-7 cells: unlabeled teduglutide 0.1 nM to 1 μM against 10–15 pM [125I]GLP-2(1–33, M10Y); 4 h, 4 °C; 50 mM HEPES pH 7.4, 1 mM CaCl2, 5 mM MgCl2, 0.5% BSA; three-parameter logistic fit.
Assay [2] concerns the target GLP-2R K414^7.35 A (human) (UniProt O95838). Described as above.
Assay [3] deals with GLP-2R R242^ECL1A (human) (UniProt O95838). Described as above.
Assay [4] addresses GLP-2R D244^ECL1A (human) (UniProt O95838). Described as above.
Assay [5] addresses GLP-2R W340^5.36A (human) (UniProt O95838). The assay is described as above.
The target in assay [6] is Human GLP-2R WT (1–553) (human) (UniProt O95838). The description is as above.
Assay [7] concerns the target GLP-2R H268^3.37A (human) (UniProt O95838). The assay is described as above.
For assay [8], the target named is T1, GLP-2R N334^ECL2A (Homo sapiens, UniProt O95838, N334A).
T1 sequence (O95838 1-553 N334A): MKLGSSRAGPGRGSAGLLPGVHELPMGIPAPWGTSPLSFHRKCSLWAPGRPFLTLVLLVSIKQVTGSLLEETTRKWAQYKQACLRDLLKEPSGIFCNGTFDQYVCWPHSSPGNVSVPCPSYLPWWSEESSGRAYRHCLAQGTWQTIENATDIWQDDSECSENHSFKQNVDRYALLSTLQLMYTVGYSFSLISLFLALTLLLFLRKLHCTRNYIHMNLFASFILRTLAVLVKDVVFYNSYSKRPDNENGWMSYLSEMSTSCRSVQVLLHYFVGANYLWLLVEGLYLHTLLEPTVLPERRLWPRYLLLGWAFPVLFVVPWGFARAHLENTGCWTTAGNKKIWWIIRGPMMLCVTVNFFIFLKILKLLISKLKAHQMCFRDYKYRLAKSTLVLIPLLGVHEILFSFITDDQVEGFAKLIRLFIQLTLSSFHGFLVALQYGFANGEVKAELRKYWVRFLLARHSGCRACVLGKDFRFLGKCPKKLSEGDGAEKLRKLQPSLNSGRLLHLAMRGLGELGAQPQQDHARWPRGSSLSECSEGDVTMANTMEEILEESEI
The assay can be described thus: cAMP accumulation, N334^ECL2A. It is filed as cell-based. Particulars: Table S3, N334A; HEK 293T, 30 min, RT; mean ± SEM, n ≥ 3 in duplicate; read-out: cAMP Emax (% WT). More on the design: GLP-2R (1-553) (WT); expressed in transfected cells; host or cells: HEK 293T. How it is done: HEK 293T cells were cultured in Dulbecco’s Modified Eagle’s Medium (DMEM) (Gibco, Waltham, USA) supplemented with 10% (v/v) fetal bovine serum (FBS) (Gibco) and 1% (v/v) sodium pyruvate (Gibco) at 37 °C, 5% CO2 in a humidified incubator. They were seeded onto 6-well cell culture plates and transiently transfected with different GLP-2R constructs using Lipofectamine 2000 transfection reagent (Invitrogen, Carlsbad, CA, USA). After 24 h, the transfected cells were seeded onto 384-well microtiter plates (3000 cells per well) in HBSS supplemented with 5 mM HEPES, 0.1% (w/v) bovine serum albumin (BSA) and 0.5 mM 3-isobutyl-1- methylxanthine, and stimulated with increasing concentrations of GLP-2 for 30 min at RT. Eu and Ulight were diluted by cAMP detection buffer and added to the plates separately to terminate the reaction. Plates were incubated at RT for 60 min before measuring the fluorescence intensity at 620 nm and […] by an EnVision multilabel plate reader (PerkinElmer, Boston, USA).
A general note: cAMP levels reflect the balance of adenylyl cyclase and phosphodiesterase activity.

Take [^125I]GLP-2(1–33, M10Y) (peptide): the % Binding of WT came out at 3.5% in assay [1]; 13.9% in assay [2]; 5.1% in assay [3]; 77.5% in assay [4]; 8.6% in assay [5]; 99.7% in assay [6]. This molecule also showed a % Binding of WT in assay [7] of 0.7%.

As a reminder, the Emax is the greatest response seen or fitted, relative to the assay's reference. For the molecule `CC[C@H](C)[C@H](NC(=O)[C@H](Cc1ccccc1)NC(=O)[C@H](CC(=O)O)NC(=O)[C@H](CCCNC(=N)N)NC(=O)[C@H](C)NC(=O)[C@H](C)NC(=O)[C@H](CC(C)C)NC(=O)[C@H](CC(N)=O)NC(=O)[C@H](CC(=O)O)NC(=O)[C@H](CC(C)C)NC(=O)[C@@H](NC(=O)[C@@H](NC(=O)[C@H](CC(N)=O)NC(=O)[C@H](CCSC)NC(=O)[C@H](CCC(=O)O)NC(=O)[C@H](CC(=O)O)NC(=O)[C@H](CO)NC(=O)[C@H](Cc1ccccc1)NC(=O)[C@H](CO)NC(=O)CNC(=O)[C@H](CC(=O)O)NC(=O)[C@H](C)NC(=O)[C@@H](N)Cc1c[nH]cn1)[C@@H](C)O)[C@@H](C)CC)C(=O)N[C@@H](CC(N)=O)C(=O)N[C@@H](Cc1c[nH]c2ccccc12)C(=O)N[C@@H](CC(C)C)C(=O)N[C@H](C(=O)N[C@@H](CCC(N)=O)C(=O)N[C@H](C(=O)N[C@@H](CCCCN)C(=O)N[C@H](C(=O)N[C@H](C(=O)N[C@@H](CC(=O)O)C(=O)O)[C@@H](C)O)[C@@H](C)CC)[C@@H](C)O)[C@@H](C)CC` [Human GLP-2 (1–33)], the Emax in assay [8] stood at 103 ± 2.9%.
